Literature values, collected in article PMC3951274.

Key:
[1] = molecular target: [α2(IV)454-465][α1(IV)437-448] heterotrimeric THP α2(IV)454-465, α1(IV)437-448 (Homo sapiens) (UniProt P02462)
[2] = molecular target: α1(I)127-138 THP 127-138 (Homo sapiens) (UniProt P02452)

Chain of UniProt P02462 (P02462 173-1669, chain 1 of 2): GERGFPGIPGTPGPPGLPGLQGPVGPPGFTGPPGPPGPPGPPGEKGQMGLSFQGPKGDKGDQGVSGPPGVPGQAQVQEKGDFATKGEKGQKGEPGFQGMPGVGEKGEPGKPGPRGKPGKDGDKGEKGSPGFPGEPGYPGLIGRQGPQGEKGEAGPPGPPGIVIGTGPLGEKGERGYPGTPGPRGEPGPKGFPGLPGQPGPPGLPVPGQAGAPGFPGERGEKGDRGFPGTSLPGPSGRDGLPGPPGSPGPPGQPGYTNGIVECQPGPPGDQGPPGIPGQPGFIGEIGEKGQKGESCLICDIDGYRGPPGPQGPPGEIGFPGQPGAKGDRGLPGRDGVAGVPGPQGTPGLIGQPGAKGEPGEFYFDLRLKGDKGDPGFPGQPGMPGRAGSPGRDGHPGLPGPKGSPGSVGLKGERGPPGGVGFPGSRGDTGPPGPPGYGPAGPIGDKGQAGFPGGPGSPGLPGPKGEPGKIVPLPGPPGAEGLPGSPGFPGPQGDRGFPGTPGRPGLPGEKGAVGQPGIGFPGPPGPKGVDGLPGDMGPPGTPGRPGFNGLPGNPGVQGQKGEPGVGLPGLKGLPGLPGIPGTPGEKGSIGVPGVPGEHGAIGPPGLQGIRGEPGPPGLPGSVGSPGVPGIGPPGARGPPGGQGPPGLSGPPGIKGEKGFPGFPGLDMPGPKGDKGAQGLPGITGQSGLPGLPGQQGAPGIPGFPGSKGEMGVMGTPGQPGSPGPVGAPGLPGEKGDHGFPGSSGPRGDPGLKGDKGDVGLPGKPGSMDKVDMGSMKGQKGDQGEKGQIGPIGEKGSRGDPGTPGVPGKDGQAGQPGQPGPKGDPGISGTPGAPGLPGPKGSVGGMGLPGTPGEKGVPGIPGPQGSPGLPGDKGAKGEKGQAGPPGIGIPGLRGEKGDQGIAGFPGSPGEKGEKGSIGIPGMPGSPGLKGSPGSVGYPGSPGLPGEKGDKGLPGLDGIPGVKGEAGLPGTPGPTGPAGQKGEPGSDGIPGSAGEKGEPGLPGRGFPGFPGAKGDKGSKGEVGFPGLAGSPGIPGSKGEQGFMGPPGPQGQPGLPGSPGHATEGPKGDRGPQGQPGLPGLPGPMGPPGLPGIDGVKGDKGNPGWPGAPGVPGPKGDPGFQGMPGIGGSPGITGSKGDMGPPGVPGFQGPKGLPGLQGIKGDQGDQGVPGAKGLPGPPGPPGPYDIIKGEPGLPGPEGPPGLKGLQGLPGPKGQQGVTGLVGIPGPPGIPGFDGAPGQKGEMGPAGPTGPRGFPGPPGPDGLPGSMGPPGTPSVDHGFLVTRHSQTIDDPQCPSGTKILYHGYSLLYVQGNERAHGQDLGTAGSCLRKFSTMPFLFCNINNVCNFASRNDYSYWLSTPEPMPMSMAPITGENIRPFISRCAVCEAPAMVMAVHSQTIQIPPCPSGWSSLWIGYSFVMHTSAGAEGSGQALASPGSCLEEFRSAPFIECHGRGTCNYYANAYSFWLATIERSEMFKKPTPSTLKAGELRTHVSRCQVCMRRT
Chain of UniProt P02462 (P08572 184-1712, chain 2 of 2, further chain): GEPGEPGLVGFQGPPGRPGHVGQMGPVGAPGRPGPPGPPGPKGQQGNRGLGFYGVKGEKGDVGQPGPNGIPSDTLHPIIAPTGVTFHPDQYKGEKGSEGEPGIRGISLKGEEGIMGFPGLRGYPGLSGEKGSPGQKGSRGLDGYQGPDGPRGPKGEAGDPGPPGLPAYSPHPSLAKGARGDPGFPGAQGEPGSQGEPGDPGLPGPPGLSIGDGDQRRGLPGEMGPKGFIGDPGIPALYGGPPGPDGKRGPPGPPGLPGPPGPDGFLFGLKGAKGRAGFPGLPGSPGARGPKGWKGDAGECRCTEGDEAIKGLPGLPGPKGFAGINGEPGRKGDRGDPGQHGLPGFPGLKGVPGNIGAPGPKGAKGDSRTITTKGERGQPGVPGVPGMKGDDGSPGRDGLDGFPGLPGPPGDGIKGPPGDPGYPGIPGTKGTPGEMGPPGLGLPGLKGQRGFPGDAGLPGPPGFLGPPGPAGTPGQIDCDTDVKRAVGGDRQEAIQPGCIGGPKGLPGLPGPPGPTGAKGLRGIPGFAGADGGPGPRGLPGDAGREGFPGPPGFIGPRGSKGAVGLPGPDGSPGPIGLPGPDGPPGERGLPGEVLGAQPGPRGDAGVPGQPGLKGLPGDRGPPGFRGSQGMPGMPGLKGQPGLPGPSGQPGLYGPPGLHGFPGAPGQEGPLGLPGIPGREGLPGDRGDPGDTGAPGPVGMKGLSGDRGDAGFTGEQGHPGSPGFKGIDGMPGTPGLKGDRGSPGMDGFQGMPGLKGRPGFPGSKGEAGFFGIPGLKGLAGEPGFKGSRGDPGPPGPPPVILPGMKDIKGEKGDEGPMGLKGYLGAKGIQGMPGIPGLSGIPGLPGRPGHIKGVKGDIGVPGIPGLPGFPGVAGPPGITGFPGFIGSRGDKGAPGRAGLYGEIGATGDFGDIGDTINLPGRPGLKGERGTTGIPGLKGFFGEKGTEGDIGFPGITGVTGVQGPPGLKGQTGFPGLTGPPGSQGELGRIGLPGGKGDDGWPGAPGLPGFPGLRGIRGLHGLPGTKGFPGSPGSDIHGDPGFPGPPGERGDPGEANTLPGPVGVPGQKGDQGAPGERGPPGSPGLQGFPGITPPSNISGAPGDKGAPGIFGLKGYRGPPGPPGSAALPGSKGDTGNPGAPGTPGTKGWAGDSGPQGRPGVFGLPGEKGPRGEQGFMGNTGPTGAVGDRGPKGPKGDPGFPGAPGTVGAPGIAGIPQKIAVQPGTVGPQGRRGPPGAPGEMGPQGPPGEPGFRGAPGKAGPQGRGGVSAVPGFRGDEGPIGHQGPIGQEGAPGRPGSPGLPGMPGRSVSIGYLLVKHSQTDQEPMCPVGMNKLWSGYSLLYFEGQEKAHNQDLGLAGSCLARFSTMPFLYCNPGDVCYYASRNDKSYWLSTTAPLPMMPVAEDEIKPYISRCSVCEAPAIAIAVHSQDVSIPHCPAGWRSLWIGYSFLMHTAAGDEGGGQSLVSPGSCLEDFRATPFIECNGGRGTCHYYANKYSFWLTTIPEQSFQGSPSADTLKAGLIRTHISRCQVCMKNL

| Substance | Kd [1] [µM] | Kd [2] [µM] |
| --- | --- | --- |
| integrin α1β1 (from UniProt P56199) | 20 | – |
| integrin α2 I-domain (from UniProt P17301) | – | 0.4 |
